Laboratory results taken from patent US20180149638A1.

Biological target: pBIND-ASK1N (DNA binding domain fused to ASK1 N-terminal 1-678 aa, CheckMate mammalian two-hybrid system) (Homo sapiens (Human)) (UniProt Q99683)
Assay: cell-based or functional assay

UniProt Q99683, sequence (Q99683 other isoform, or with tags, fused parts or gaps limits assumed, form in doubt): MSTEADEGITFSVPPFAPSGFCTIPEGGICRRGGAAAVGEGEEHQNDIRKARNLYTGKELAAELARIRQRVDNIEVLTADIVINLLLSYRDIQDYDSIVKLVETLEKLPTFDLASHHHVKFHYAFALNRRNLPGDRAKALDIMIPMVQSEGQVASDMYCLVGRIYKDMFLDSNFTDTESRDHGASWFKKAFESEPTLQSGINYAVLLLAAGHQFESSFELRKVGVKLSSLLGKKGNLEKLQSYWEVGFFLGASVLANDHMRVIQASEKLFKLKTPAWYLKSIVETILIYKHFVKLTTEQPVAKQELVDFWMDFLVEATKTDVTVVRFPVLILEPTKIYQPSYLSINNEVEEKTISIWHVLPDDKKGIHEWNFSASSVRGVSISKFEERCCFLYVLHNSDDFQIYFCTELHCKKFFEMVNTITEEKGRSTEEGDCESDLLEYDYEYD

In the case of “pACT-ASK1N (transcriptional activation domain fused to ASK1 N-terminal 1-678 aa, CheckMate mammalian two-hybrid system) (from UniProt Q99683 1-678)”, the ratio of RLU value of firefly luciferase to RLU value of Renilla luciferase, group A (no peptide) is reported as 1.9.
